Measurements: PMC7002343

System: EspM (lysate) (Mycobacterium marinum M (ATCC BAA-535))
Test: DNA pull-down, LC-MS/MS
Details: 5' BiotinTEG on both primers; EspM EMSA: 10 mM Tris-HCl pH 8.0, 40 mM KCl, 2.5 mM DTT, 0.25% Tween-20, 0.02 mg/mL salmon sperm DNA (listed as 0.5x binding buffer), ~70 ng probe, 20-25 min …

Work on whiB6 promoter bait (1 kb) yielded a binding signal (fold enrichment over rpoA bait (N5)) of over 64.
